# The RNAGym collection of RNA variant scans (doi:10.1093/nar/gkz1192)
# B1: CPEB3 Ribozyme (parent)
# chain: UAACAGGGGGCCACAGCAGAAGCGUUCACGUCGCAGCCCCUGUCAGAUUCUGGUGAAUCUGCGAAUUCUGCUGUAUAUCUC
# Variants of: B1
# Assay: self-cleavage, relative activity (ratio to wild type); higher = more cleavage; in vitro, sequencing
# How it was run: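 CPEB3 self-cleaving ribozyme mutant libraries were made by rounds of error-prone PCR, barcoded, and transcribed in vitro with T7 RNA polymerase for 5 hours at 37°C. Cleavage occurred during transcription and a 15 min DNase I step before EDTA stop. RNAs were reverse transcribed with template switching and Illumina-sequenced, with DNA sequencing mapping barcodes to variants. Relative activity is the variant's cleaved/total read fraction divided by wild type's (minimum 5 reads), averaged across three batches.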
row,Variant,self-cleavage
1,A13U G70A,0.48
2,A13U G70C,0.21
3,A13U U78C,1.23
4,A13U U78A,1.21
5,A13U A57C,0.7
6,A13U A57G,1.07
7,A13U A57U,1.04
8,A13U A15U,1.05
9,A13U A15G,0.69
10,A13U A15C,0.88
11,A13U C29U,0.58
12,A13G U72C,0.8
13,A13G U72A,0.54
14,A13G U72G,0.46
15,A13G G70C,0.45
16,A13G G70A,0.26
17,A13U C40U,1.25
18,A13G U26A,0.85
19,A13G U26G,0.21
20,A13G U26C,0.38
21,A13U G42A,0.19
22,A13U G42U,0.12
23,A13C U48C,0.68
24,A13G G52U,1.14

row,Variant,self-cleavage
1,A13G G52A,1.04
2,A13U U60A,0.73
3,A13U U60C,0.64
4,A13U U76C,1.17
5,A13U U76A,1.11
6,A13U A45G,1.1
7,A13U A45C,0.38
8,A13U A45U,0.69
9,A13C U69C,0.52
10,A13C U69A,0.31
11,A13G A35C,0.56
12,A13G A35U,0.48
13,A13G A35G,0.92
14,A13G C32U,0.18
15,A13G C32A,0.16
16,A13G G16A,0.24
17,A13U C39U,1.18
18,A13U C39G,0.51
19,A13U C39A,0.15
20,A13U G52A,1.22
21,A13U G52C,1.24
22,A13C U80A,0.92
23,A13C U80C,1.14
24,A13G C27U,0.26

row,Variant,self-cleavage
1,A13G C44U,0.32
2,A13G C44A,0.24
3,A13G A56U,0.42
4,A13G A56G,0.73
5,A13G U80C,1.03
6,A13G U80G,0.75
7,A13G U80A,1.07
8,A13U U67C,0.3
9,A13U U67A,0.7
10,A13U A21C,0.37
11,A13U A21U,0.35
12,A13U A21G,0.48
13,A13G U69C,0.32
14,A13G U69G,0.39
15,A13G U69A,0.38
16,A13G C59G,0.24
17,A13G C59U,0.8
18,A13G A77U,0.92
19,A13G A77G,0.69
20,A13G A77C,0.62
21,A13G G55C,0.23
22,A13G G55A,0.79
23,A13G A57G,0.72
24,A13G A57U,0.45

row,Variant,self-cleavage
1,A13G A57C,0.33
2,A13G U43C,0.49
3,A13G U43A,0.93
4,A13G U43G,0.27
5,A13U U69G,0.85
6,A13U U69C,0.71
7,A13U U69A,0.74
8,A13U C38U,0.89
9,A13U C38A,0.12
10,A13U C38G,0.41
11,A13G U74G,1.37
12,A13G U74C,0.72
13,A13G U74A,1.28
14,A13U C34U,0.43
15,A13U G33A,0.21
16,A13U G33C,0.2
17,A13U G33U,0.11
18,A13G G63C,0.81
19,A13G G63A,0.68
20,A13G A75C,1.03
21,A13G A75G,1.03
22,A13G A75U,0.99
23,A13U C23U,0.15
24,A13U C23A,0.33

row,Variant,self-cleavage
1,A13U C23G,0.17
2,A13C U54C,1.09
3,A13C U54G,0.71
4,A13G U60G,0.32
5,A13G U60A,0.43
6,A13G U60C,0.38
7,A13C U78C,1.02
8,A13C U78A,1
9,A13U G73U,1.24
10,A13U G73C,1.26
11,A13U G73A,1.23
12,A13G C50U,0.91
13,A13G C50A,0.76
14,A13G C50G,0.81
15,A13G C29A,0.3
16,A13G C29U,0.33
17,A13G C29G,0.11
18,A13C U31A,0.38
19,A13C U31C,0.66
20,A13U U31A,0.61
21,A13U U31C,1.01
22,A13U U31G,0.66
23,A13G A18U,0.27
24,A13G A18G,0.39

row,Variant,self-cleavage
1,A13G A65C,0.56
2,A13G A65G,0.41
3,A13G A65U,0.31
4,A13G C17U,0.51
5,A13G C17G,0.13
6,A13G C17A,0.38
7,A13C U41C,1.08
8,A13G U25C,0.36
9,A13G U25A,0.29
10,A13U C71A,0.33
11,C14A,1.17
12,A13C U58C,0.45
13,A13G G53U,1.15
14,A13G G53A,0.92
15,A13G C14A,0.88
16,A13G C14U,0.78
17,A13C U66C,0.33
18,A13U C50U,0.89
19,A13U C50A,0.98
20,A13U G22C,0.19
21,A13U G22U,0.34
22,A13U A56U,0.93
23,A13U A56G,1.07
24,A13G C23U,0.36

row,Variant,self-cleavage
1,A13G C23G,0.46
2,A13G U67C,0.25
3,A13G U67A,0.43
4,A13U U43C,0.93
5,A13U U43A,1.09
6,A13U U43G,0.26
7,A13G G46A,0.21
8,A13G G30C,0.16
9,A13G G30A,0.44
10,A13G G30U,0.18
11,A13U A47C,0.76
12,A13U A47U,0.92
13,A13U A47G,1.01
14,A13U C32A,0.2
15,A13U C32U,0.25
16,A13U C32G,0.45
17,A13G G24A,0.27
18,A13U G36A,0.33
19,A13U A18G,0.87
20,A13U A18C,0.42
21,A13U A18U,0.38
22,A13U U48A,0.56
23,A13U U48C,0.77
